Laboratory results: patent publication US20150098945A1 (Daiichi Sankyo, published 2015)
One block for each binder: values may come before it.

Legend:
[1] = target: T1, rat ROBO4 (pCI-raROBO4-transfected HEK293 cells) (rat, UniProt Q80W87 38-949 at identity 0.93)); test: flow cytometry, HEK293 cells transfected with pCI-raROBO4, anti-mouse IgG FITC; control histogram IgG (Mouse IgG2a)
T1 chain: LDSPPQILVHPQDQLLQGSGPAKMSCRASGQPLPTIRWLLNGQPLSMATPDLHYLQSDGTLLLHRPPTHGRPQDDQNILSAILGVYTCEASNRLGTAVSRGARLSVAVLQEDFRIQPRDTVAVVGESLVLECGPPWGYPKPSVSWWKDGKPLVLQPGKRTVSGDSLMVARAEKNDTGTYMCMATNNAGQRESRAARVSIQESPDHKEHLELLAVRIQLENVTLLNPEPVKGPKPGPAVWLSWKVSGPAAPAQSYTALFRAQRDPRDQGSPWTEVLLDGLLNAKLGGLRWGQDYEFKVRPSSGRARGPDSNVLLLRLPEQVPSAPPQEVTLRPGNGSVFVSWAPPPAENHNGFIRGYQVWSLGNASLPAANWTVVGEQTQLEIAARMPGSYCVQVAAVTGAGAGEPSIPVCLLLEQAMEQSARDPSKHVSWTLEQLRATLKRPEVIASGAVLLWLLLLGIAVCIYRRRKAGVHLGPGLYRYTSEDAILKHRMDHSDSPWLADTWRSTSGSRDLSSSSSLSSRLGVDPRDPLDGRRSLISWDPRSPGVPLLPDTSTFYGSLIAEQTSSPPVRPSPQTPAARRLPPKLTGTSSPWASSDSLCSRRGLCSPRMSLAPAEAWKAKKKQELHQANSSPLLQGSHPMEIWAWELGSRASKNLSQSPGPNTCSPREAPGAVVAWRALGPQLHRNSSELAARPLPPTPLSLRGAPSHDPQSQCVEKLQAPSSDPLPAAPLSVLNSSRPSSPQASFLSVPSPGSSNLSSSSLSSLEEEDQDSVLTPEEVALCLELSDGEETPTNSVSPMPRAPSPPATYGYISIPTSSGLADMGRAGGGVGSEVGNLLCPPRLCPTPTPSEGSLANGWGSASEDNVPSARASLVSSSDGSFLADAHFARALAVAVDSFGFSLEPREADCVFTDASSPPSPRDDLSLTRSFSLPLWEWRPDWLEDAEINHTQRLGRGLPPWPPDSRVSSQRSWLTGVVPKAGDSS
Description: HEK293 cells were inoculated at a concentration of 1.5×10⁶ cells/dish to a 60-mm dish (manufactured by Corning Inc.) and cultured overnight in a DMEM medium containing 10% FBS at 37° C. under 5% CO₂ conditions. On the next day, the HEK293 cells were transfected with pCI-hROBO4, pCI-mROBO4, pCI-raROBO4, pCI-FLAG-cynoROBO4-1, pCI-FLAG-cynoROBO4-2, pCI-hROBO1, pCI-hROBO2, or pCI-hROBO3 using FuGENE6 Transfection Reagent and further cultured overnight at 37° C. under 5% CO₂ conditions. On the next day, the expression vector-transfected cells were treated with TrypLE Express (manufactured by Life Technologies Corp.), washed with PBS containing 5% FBS, and then suspended in PBS containing 5% FBS. The obtained cell suspension was used in flow cytometry analysis.
Each cell suspension prepared in 4)-3-1 was centrifuged, and the supernatant was removed. Then, MAb1 or a negative control Mouse IgG2a was added at a concentration of 10 μg/mL to 2×10⁵ expression vector-transfected cells, and the resulting suspension was left standing at 4° C. for 1 hour. […] Data was analyzed using Flowjo. The histogram of FITC fluorescence intensity was prepared. The antibody was determined to bind in a cross-species manner when the histogram of MAb1 was shifted to a stronger fluorescence intensity region compared with the histogram of the negative control Mouse IgG2a.

[2] = target: T2, N-terminal FLAG-tagged cynomolgus monkey ROBO4, cynoROBO4-2 (pCI-FLAG-cynoROBO4-2) (cynomolgus monkey, UniProt Q8WZ75 28-1007 (human entry)); test: flow cytometry (FC500), HEK293 cells transfected with pCI-FLAG-cynoROBO4-2, antibody at 10 µg/mL, FITC goat anti-human IgG Fc; control histogram IgG (human IgG)
T2 chain: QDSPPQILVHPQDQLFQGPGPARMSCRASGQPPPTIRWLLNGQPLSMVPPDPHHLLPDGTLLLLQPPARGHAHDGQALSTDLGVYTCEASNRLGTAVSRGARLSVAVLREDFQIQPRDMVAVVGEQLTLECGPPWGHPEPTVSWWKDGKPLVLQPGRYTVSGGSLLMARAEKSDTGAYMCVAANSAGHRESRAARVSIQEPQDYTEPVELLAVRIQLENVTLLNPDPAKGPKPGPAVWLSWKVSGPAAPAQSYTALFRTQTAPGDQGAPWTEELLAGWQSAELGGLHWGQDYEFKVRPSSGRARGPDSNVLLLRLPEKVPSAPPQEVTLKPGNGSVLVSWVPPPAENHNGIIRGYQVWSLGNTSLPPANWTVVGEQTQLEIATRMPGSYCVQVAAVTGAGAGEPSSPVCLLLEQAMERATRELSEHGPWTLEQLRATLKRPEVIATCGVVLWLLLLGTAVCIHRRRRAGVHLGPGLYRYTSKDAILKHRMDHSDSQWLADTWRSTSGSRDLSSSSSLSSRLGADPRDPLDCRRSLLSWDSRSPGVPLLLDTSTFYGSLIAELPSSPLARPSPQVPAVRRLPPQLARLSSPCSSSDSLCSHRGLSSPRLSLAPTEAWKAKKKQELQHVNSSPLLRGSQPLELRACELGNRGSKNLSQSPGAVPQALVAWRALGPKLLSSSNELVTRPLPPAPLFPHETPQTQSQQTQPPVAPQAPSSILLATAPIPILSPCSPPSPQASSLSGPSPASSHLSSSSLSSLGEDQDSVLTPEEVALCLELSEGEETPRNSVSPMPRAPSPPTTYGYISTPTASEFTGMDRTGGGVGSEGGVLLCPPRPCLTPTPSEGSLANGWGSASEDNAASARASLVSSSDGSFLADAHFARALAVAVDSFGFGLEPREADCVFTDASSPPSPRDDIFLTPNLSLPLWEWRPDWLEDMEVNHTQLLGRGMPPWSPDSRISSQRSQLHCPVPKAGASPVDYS

binding result [1]: no binding (tested: 10 µg/mL)
B1: anti-ROBO4 mouse monoclonal antibody MAb1 (antibody, mouse IgG1, V domains shown)
VH: EVQLVESGGGLVKPGGSLKLSCAASGFTFSTYAMSWVRQTPEKRLEWVATISNGGTYTYYPDSVKGRFTISRDNAENTLYLQMSSLRSEDTAMYFCARLIYYDYLDYWGHGTTLTVSS
VL: DAVMTQTPLSLPVSLGDQASISCRSSQSLENSNGNTYLNWYFQKPGQSPQLLIYRVSNRFSGVLDRFSGSGSGTDFTLKISRVEAEDFGVYFCLQVTHVPWTFGGGTKLEIKR
notes: Mouse IgG1 (gamma1), kappa light chain, purified from hybridoma supernatant; also called parent antibody MAb1

binding result [2]: binds
B2: humanized MAb1 antibody H-2143 (antibody, human IgG2, kappa, V domains shown)
VH: EVQLVESGGGLVQPGGSLRLSCAASGFTFSTYAMSWVRQAPGKRLEWVATISQGGTYTYYPDSVKGRFTISRDNAKNTLYLQMNSLRAEDTAVYYCARLIYYDYLDYWGQGTLVTVSS
VL: DIVMTQSPLSLPVTLGEPASISCRSSQSLENENKNLYLNWYLQKPGQSPQLLIYRVSNRFSGVPDRFSGSGSGTDFTLKISRVEAEDVGVYYCLQVTHVPWTFGPGTKVDIKR
notes: Human IgG2 / kappa constant regions; also called hMAb1-H4-type heavy chain + hMAb1-L2-type light chain
